Laboratory results: paper PMC4342785 (Nature, 2015)

Biological target: T1, mouse core RAG1 (384–1008aa) (mouse, UniProt P15919 384-1008)
T1 sequence (looked up): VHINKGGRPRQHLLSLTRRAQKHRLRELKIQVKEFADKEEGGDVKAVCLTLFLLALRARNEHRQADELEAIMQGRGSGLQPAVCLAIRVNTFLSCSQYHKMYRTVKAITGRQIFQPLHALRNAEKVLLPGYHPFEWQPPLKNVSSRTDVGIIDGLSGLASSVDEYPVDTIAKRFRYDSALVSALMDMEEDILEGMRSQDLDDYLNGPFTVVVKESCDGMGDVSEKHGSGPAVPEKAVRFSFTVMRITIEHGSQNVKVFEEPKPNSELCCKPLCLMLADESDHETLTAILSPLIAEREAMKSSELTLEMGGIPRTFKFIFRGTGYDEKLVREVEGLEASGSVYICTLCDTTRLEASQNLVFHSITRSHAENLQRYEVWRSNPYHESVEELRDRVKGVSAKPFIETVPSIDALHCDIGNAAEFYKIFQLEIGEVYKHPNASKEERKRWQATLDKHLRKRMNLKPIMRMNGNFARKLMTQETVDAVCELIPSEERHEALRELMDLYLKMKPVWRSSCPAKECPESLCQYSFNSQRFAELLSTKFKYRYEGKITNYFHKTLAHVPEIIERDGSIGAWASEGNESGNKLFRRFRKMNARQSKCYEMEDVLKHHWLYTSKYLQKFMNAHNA
Assay: crystal structure

B1: mouse core RAG2 (1–387aa), M1V (domain or fragment, UniProt P21784 1-387, looked up)
chain: VSLQMVTVGHNIALIQPGFSLMNFDGQVFFFGQKGWPKRSCPTGVFHFDIKQNHLKLKPAIFSKDSCYLPPLRYPATCSYKGSIDSDKHQYIIHGGKTPNNELSDKIYIMSVACKNNKKVTFRCTEKDLVGDVPEPRYGHSIDVVYSRGKSMGVLFGGRSYMPSTQRTTEKWNSVADCLPHVFLIDFEFGCATSYILPELQDGLSFHVSIARNDTVYILGGHSLASNIRPANLYRIRVDLPLGTPAVNCTVLPGGISVSSAILTQTNNDEFVIVGGYQLENQKRMVCSLVSLGDNTIEISEMETPDWTSDIKHSKIWFGSNMGNGTIFLGIPGDNKQAMSEAFYFYTLRCSEEDLSEDQKIVSNSQTSTEDPGDSTPFEDSEEFCFS
B1: binds.
